Consider 7 molecules from patent publication US20020106690A1 (published 2002).

Where a chain is given by its changes, count along the chain named. Names may count otherwise.

The target of one data set is T1, Ste4p, P18851.
T1 chain: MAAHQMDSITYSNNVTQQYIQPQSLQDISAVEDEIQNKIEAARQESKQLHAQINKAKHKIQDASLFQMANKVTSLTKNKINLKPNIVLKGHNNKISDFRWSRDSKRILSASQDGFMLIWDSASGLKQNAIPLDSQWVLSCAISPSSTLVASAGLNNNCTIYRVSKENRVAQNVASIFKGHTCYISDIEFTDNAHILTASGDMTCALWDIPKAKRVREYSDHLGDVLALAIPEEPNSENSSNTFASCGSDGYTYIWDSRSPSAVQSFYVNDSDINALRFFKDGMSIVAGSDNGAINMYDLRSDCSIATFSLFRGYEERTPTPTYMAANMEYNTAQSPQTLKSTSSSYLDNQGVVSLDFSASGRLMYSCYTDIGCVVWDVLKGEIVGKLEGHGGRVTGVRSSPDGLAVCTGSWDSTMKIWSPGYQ

In another data set the target is T2, Ste20p (Saccharomyces cerevisiae (yeast), UniProt Q03497 1-939).
T2 construct: Full length Ste20p in yeast cells (endogenous, or from pDH166 / pSTE20-5); also called STE20^WT; wild-type Ste20p
T2 sequence: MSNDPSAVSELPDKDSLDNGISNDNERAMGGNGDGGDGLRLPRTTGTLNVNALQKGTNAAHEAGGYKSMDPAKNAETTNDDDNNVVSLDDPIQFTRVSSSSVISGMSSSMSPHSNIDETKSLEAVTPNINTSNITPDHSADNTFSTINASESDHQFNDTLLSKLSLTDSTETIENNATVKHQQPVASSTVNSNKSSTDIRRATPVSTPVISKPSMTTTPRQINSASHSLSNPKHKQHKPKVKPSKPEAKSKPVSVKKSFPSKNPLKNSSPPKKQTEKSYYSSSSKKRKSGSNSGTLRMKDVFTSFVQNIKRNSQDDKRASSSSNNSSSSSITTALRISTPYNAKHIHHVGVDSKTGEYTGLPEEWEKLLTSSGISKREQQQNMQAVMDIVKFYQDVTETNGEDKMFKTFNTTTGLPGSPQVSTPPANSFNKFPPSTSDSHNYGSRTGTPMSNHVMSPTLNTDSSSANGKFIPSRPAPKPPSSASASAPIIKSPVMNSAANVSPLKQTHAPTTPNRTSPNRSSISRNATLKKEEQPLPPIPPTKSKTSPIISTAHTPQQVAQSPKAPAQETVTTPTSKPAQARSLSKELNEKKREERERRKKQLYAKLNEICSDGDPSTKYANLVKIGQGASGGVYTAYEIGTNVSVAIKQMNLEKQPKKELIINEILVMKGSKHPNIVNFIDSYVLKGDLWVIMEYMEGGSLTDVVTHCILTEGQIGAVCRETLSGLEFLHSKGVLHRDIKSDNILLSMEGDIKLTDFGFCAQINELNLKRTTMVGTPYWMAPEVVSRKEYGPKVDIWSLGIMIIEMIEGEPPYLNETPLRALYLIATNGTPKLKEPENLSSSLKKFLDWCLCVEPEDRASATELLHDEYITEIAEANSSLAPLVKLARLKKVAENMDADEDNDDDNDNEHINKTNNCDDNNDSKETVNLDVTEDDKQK
Kind of data set: co-immunoprecipitation from yeast extracts, anti-HA IP, Western blot. As for the experimental part: Relative amounts of Ste20p and HA-Ste4p were determined in Western blots (see example in upper and middle panels) and quantified densitometrically (mean values ±SD, n=3) (lower panel). (B) Association of Ste5p with HA-Ste4p expressed from the STE4 promoter in cells deleted for STE4 . HA-Ste4p immunoprecipitates from exponentially growing (−) and pheromone-treated (90 minutes) (+) yeast cells were analyzed with antibodies to Ste5p (upper panel) or HA-Ste4p (lower panel). (C) Overexpression of Ste4p leads to binding to Ste20p. HA-Ste4p was overexpressed from the GAL1 promoter in cells deleted for STE20 (lane 1) or STE4 (lanes 2 and 3). […] Immunoprecipitates obtained with antibodies to Ste20p (lanes 1 and 2) or the HA-epitope (lanes 3 and 4) were analyzed for the presence of Ste20p (upper panel) and HA-Ste4p (lower panel). […] HA-Ste4p (lanes 1 and 2) and Ste20p (lanes 3 and 4) immunoprecipitates were analyzed for the presence of Ste20p (upper panel) and HA-Ste4p (lower panel) by Western blot analyses. […]
For the detection of Ste20p fragments, a secondary sheep antibody specific to rabbit immunoglobulin light chains and a tertiary HRP-conjugated donkey antibody to sheep IgG were obtained from The Binding Site, Lim. […] For quantitation, immunoblots were evaluated by integrating densitometry using an Epson ES 1200-C densitometer and the NIH Image 1.59 software.

A further data set deals with T3, GST-Ste20p FL (Saccharomyces cerevisiae (yeast), UniProt Q03497 1-939).
T3 construct: Purified on glutathione-Sepharose beads; also called GST fusion with full length Ste20p; not shown: glutathione S-transferase (GST), amino-terminal fusion partner
T3 sequence: T2 sequence
Briefly: GST pull-down of in vitro-translated 35S-Ste4p mutant, with HA-Ste18p present. The text has this: Interaction of Ste4p mutants with Ste20p and Ste5p. […] Relative amounts of the GST fusion proteins and of ³⁵S-Ste4p were quantified by densitometric evaluation of Western blots and autoradiographs, respectively. Data are given as percentage of binding of wild-type ³⁵S-Ste4p (mean values ±SD, n≧3).
The beads were then washed three times with PBS, separated by SDS-PAGE and analysed by autoradiography of Western blots. Results were confirmed in at least three independent experiments. Immunodetection and evaluation of immunoblots and radiographs were then performed as described above. Data obtained for ³⁵S-Ste4p were corrected for relative concentrations of the respective GST fusion proteins.

In data set [1] the target is T4, Ste4p (Saccharomyces cerevisiae (yeast)) (UniProt P18851).
T4 sequence (35S-labelled methionine in the in vitro-translated form, looked up): T1 chain
Kind of data set: GST pull-down of in vitro-translated 35S-Ste4p with HA-Ste18p present; normalized against wild-type Ste20p 819-939.

B1: Ste20p^495-888 (protein)
chain: MNSAANVSPLKQTHAPTTPNRTSPNRSSISRNATLKKEEQPLPPIPPTKSKTSPIISTAHTPQQVAQSPKAPAQETVTTPTSKPAQARSLSKELNEKKREERERRKKQLYAKLNEICSDGDPSTKYANLVKIGQGASGGVYTAYEIGTNVSVAIKQMNLEKQPKKELIINEILVMKGSKHPNIVNFIDSYVLKGDLWVIMEYMEGGSLTDVVTHCILTEGQIGAVCRETLSGLEFLHSKGVLHRDIKSDNILLSMEGDIKLTDFGFCAQINELNLKRTTMVGTPYWMAPEVVSRKEYGPKVDIWSLGIMIIEMIEGEPPYLNETPLRALYLIATNGTPKLKEPENLSSSLKKFLDWCLCVEPEDRASATELLHDEYITEIAEANSSLAPLVKLA
B1: in the data set with Ste4p, P18851, the FUS1::lacZ expression, Basal is 1.6; the FUS1::lacZ expression, Induced came out at 148; the G1 arrest result was “+”; the Mating efficiencies (%) was 75.2%. Also, in the data set with Ste4p, P18851, the Shmoo formation entry is “+”.

B2: HA-Ste4p (other, Saccharomyces cerevisiae (yeast), UniProt P18851 1-423, looked up, not shown: small tags and cut ends)
chain: T1 chain
With B2, the binding result with Ste20p is “binds”.

B3: Ste4p K55E mutant (other, Saccharomyces cerevisiae (yeast), UniProt P18851 1-423, looked up)
chain: T1 chain with K55E
modifications: 35S-labelled methionine
notes: In vitro-translated, 35S-labelled; also called STE4^K55E; 35S-Ste4p K55E
On to B3, for which, in the data set with GST-Ste20p FL, the binding result is on record as “no binding”.

B4: Ste4p D62N mutant (other, Saccharomyces cerevisiae (yeast), UniProt P18851 1-423, looked up)
chain: T1 chain with D62N
modifications: 35S-labelled methionine
notes: In vitro-translated, 35S-labelled; also called STE4^D62N; 35S-Ste4p D62N
Consider B4, for which, in the data set with GST-Ste20p FL, the binding result is recorded as “no binding”.

B5: GST fusion with the fragment from amino acid 819 to 939 of the Ste20p^S879A/S880A/P883A mutant (protein, not shown: a dimerising Fc or GST; large carriers; small tags and cut ends)
chain: PLRALYLIATNGTPKLKEPENLSSSLKKFLDWCLCVEPEDRASATELLHDEYITEIAEANAALAALVKLARLKKVAENMDADEDNDDDNDNEHINKTNNCDDNNDSKETVNLDVTEDDKQK
As to B5, the Binding to 35S-Ste4p (%) in data set [1] worked out at 15.2%.

B6: Ste20p^S879A/S880A/P883A (protein)
chain: T2 sequence with S879A, S880A, P883A
Take B6: in the data set with Ste4p, P18851, the FUS1::lacZ expression was 14, the G1 arrest entry is “-”, the Mating efficiencies (%) amounted to 0.039% and the Shmoo formation result is “-”.

B7: Ste20p^CLA4 (protein)
chain: T2 sequence with S879K, S880D, A882T, P883S, V885L, K886E, L887W
For the molecule B7, in the data set with Ste4p, P18851, the FUS1::lacZ expression stood at 11, the G1 arrest result is given as “-”, the Mating efficiencies (%) amounted to 0.016% and the Shmoo formation result is listed as “-”.
